The text below walks through data of paper PMC6934155.

Assay [1] has as its target Rad3/Rad26 (ATR/ATRIP homolog in Schizosaccharomyces pombe) with TAPm-Rad3 (S. pombe) (UniProt Q02099). Kind of assay: co-IP.
In assay [2] the target is Fatty acid synthase (FAS) of S. pombe, co-purified with Rad3/Rad26 (S. pombe) (UniProt Q9UUG0).

In assay [1], “Apo-state fatty acid synthase (FAS) of S. pombe with Fas1-FLAG, Q9UUG0 1-2073; Q10289 1-1842” displayed a fold of co-precipitation compared with control (CPT-treated cells) of 1.79 times and a fold of co-precipitation compared with control (MMS-treated cells) of 2.01 times.
“Rad3/Rad26 (ATR/ATRIP homolog in Schizosaccharomyces pombe) with TAPm-Rad3, Q02099 1-2386; P36632 1-614”: the specific (catalytic) activity of co-purified FAS relative to apo-state FAS in assay [2] amounted to 23.3%.
